Assay [1] addresses T1, hMC1-r (Homo sapiens, UniProt Q01726).
T1 construct: expressed in transfected cells; host or cells: COS-7 cells, transient (DEAE-Dextran)
Put plainly: Scatchard Analysis on MC1-r transfected COS7 cells with AP-Ag. The assay is classed as binding. The settings on record: culture supernatant containing up to 30 nM AP-Ag, estimated. The protocol:
(§1) COS-7 cells were transfected with hMC1-r or hMC4-r by the DEAE-Dextran method. A plasmid containing the Adenovirus VA1 and VA2 RNA genes was used to co-transfect the COS cells to enhance transient protein expression by increasing translational initiation. The MC4-r and the VA½ cDNA plasmids were used at a ratio of 10 to 1. Control plates received the VA½ plasmid alone. 48 hours post-transfection, the cells were rinsed and culture supernatant containing 15 nm of AP-Ag was added. AP-Ag is a truncated agouti protein, containing the cysteine-rich domain tagged with the alkaline phosphatase at its N-terminal. Binding of AP-Ag to transfected cells proceeded at room temperature for 90 minutes with gentle rocking. The cells were then washed 7 times before fixing and color development using NBT/BCIP substrate.
To assess the affinity of the agouti protein for the MC1-R receptor, a Scatchard Analysis was performed on MC1-r transfected COS7 cells using culture supernatant containing up to 30 nM AP-Ag. The Kd has been estimated at 20-30 nM range.

Assay [2] has as its target T2, hMC4-r (Homo sapiens, UniProt P32245).
T2 construct: expressed in transfected cells; host or cells: COS-7 cells, transient (DEAE-Dextran), co-transfected with Adenovirus VA1/VA2 RNA plasmid
Put plainly: Direct binding of AP-Ag to hMC4-r transfected COS-7 cells (AP staining). The note with it: 15 nm AP-Ag, room temperature, 90 minutes; transfection efficiency typically 12-16%. The protocol: as §1
(§2) N-terminal truncated agouti protein, containing only the cysteine-rich C-terminal domain, retains the antagonizing activity of the full-length agouti. […]
(§3) The transfection efficiency, as monitored by β-galactosidase reporter plasmid, typically was 12-16%. 10-13% of the MC1-r transfected and 3-4% of the MC4-r transfected COS7 cells bound the agouti protein as determined by AP staining. […]

Assay [3] addresses T3, Human melanocortin receptor 4 (hMC4-r) (Homo sapiens, UniProt P32245).
T3 construct: expressed in transfected cells
Put plainly: Intracellular cAMP level in 293/MC4-R stable clones with agouti protein. It is filed as cell-based. The settings on record: 5 nM agouti protein; 293/MC4-R line relative to the parental 293 cell line. The protocol:
Human melanocortin receptor 4 (hMC4-r) cDNA, under the control of the CMV promoter, was transfected into the 293 cell line, and stable clones were selected (293/MC4-R). The stable clones were tested for reduction in intracellular cAMP levels in the presence of 5 nM agouti protein.
When 5 nM agouti protein was added to the 293/MC4-R line, an 18% reduction of intracellular cAMP level, relative to the parental 293 cell line, was observed.
(Cyclic AMP is a second messenger, typically raised through Gs and lowered through Gi signalling.)

For assay [4], the target named is T1, hMC1-r. In words: Direct binding of AP-Ag to hMC1-r transfected COS-7 cells (AP staining). The settings on record: 15 nm AP-Ag, room temperature, 90 minutes; transfection efficiency typically 12-16%. As for the experimental part:
as §1, §2, §3

T1 sequence (Q01726 whole entry): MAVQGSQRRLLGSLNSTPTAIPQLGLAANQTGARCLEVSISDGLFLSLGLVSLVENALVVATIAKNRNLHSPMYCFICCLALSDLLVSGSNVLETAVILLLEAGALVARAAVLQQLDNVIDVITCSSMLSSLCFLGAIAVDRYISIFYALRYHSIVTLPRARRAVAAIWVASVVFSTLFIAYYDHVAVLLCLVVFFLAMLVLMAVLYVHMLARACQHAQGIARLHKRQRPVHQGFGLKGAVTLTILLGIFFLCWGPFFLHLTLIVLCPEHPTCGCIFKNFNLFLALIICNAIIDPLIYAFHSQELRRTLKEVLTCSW
T2 sequence (P32245 whole entry): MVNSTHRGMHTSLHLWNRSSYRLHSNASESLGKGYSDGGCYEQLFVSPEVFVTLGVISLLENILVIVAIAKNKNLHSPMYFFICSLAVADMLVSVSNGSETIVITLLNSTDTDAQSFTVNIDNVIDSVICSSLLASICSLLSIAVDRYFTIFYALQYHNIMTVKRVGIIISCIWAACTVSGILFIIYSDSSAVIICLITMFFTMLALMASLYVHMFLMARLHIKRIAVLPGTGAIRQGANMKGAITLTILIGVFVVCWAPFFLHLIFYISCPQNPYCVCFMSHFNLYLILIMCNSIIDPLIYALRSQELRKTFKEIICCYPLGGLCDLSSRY
T3 sequence (P32245 whole entry): as above

In general, Kd refers to a measure of binding affinity in units of concentration. Consider “AP-Ag: truncated agouti protein, containing the cysteine-rich domain tagged with the alkaline phosphatase at its N-terminal”, for which the dissociation constant Kd in assay [1] is 20 to 30 nM.

B1: agouti protein: gene product expressed in mice, involved in coat color and obesity when ectopically expressed; antagonizes melanocortin receptors (protein)
chain: HLALEETLGDDRSLRSNSSMNSLDFSSVSIVALNKKSKKISRKEAEKRKRSSKKKASMKKVARPPPPSPCVATRDSCKPPAPACCDPCASCQCRFFGSACTCRVLNPNC
Consider B1, for which the “MC4-r transfected COS7 cells that bound the agouti protein as determined by AP staining” value in assay [2] is given as 3-4%. Also, the “reduction of intracellular cAMP level” value in assay [3] came to 18%. In addition, the “MC1-r transfected COS7 cells that bound the agouti protein as determined by AP staining” value in assay [4] is 10-13%.
